Measured values reported in patent publication US20210371526A1 (AMPSOURCE BIOPHARMA SHANGHAI, published 2021).

Key:
[1] = molecular target: T1, Mucin1 on tumor cells (MCF-7, BT-549, HCC70, T-47D, HCC1954, SK-OV-3, Hela, HT-29) (human, UniProt P15941 24-1255); experiment: flow cytometry on Hela cells
T1 construct: whole, on cells; also called tumor cells over-expressing Mucin1

[2] = molecular target: T1, Mucin1 on tumor cells (MCF-7, BT-549, …); experiment: cell-based or functional assay
[3] = molecular target: T1, Mucin1 on tumor cells (MCF-7, BT-549, …); experiment: flow cytometry on BT-549 cells
[4] = molecular target: T1, Mucin1 on tumor cells (MCF-7, BT-549, …); experiment: flow cytometry on SK-OV-3 cells
[5] = molecular target: T1, Mucin1 on tumor cells (MCF-7, BT-549, …); experiment: flow cytometry on T-47D cells
[6] = molecular target: T1, Mucin1 on tumor cells (MCF-7, BT-549, …); experiment: flow cytometry on HCC1954 cells
[7] = molecular target: T1, Mucin1 on tumor cells (MCF-7, BT-549, …); experiment: cell-based or functional assay; remark: listed apart in the source
[8] = molecular target: T1, Mucin1 on tumor cells (MCF-7, BT-549, …); experiment: flow cytometry on HCC70 cells

B1: Bispecific antibody AB11K (Anti-Mucin1×CD3, scFv1-scFv2-Fc) (bispecific antibody)
chain: EVQLVESGGGLVQPGGSMRLSCVASGFPFSNYWMNWVRQAPGKGLEWVGEIRLKSNNYTTHYAESVKGRFTISRDDSKNSLYLQMNSLKTEDTAVYYCTRHYYFDYWGQGTLVTVSSGGGGSGGGGSGGGGSDIVMTQSPLSNPVTPGEPASISCRSSKSLLHSNGITYFFWYLQKPGQSPQLLIYQMSNLASGVPDRFSGSGSGTDFTLRISRVEAEDVGVYYCAQNLELPPTFGQGTKVEIKGGGGGGSGGGGSGGGGSSSSSKAPPPSEVQLLESGGGLVQPGGSLKLSCAASGFTFNTYAMNWVRQAPGKGLEWVARIRSKYNNYATYYADSVKDRFTISRDDSKNTAYLQMNNLKTEDTAVYYCVRHGNFGNSYVSWFAYWGQGTLVTVSSGGGGSGGGGSGGGGSELVVTQEPSLTVSPGGTVTLTCRSSTGAVTTSNYANWVQQKPGQAPRGLIGGTNKRAPGTPARFSGSLLGGKAALTLSGVQPEDEAEYYCALWYSNLWVFGGGTKLTVLDKTHTCPPCPAPEAAGGPSVFLFPPKPKDQLMISRTPEVTCVVVDVSHEDPEVKFNWYVDGVEVHNAKTKPREEQYASTYRVVSVLTVLHQDWLNGKEYKCKVSNKALPASIEKTISKAKGQPREPQVYTLPPSRDELTKNQVSLTCLVKGFYPSDIAVEWESNGQPENNYKTTPPVLDSDGSFFLYSKLTVDKSRWQQGNVFSCSVLHEALHNHYTQKSLSLSPG
- EC50 [1]: 5.51 nM
- T cell activation EC50 (Jurkat-NFAT luciferase) with BT-549 cells [2]: 10.5 nM
- T cell activation EC50 (Jurkat-NFAT luciferase) with HCC70 cells [2]: 3.02 nM
- T cell activation EC50 (Jurkat-NFAT luciferase) with HCC1954 cells [2]: 5.6 nM
- T cell activation EC50 (Jurkat-NFAT luciferase) with HT-29 cells [2]: 6.71 nM
- T cell activation EC50 (Jurkat-NFAT luciferase) with Hela cells [2]: 7.24 nM
- T cell activation EC50 (Jurkat-NFAT luciferase) with MCF-7 cells [2]: 14.2 nM
- T cell activation EC50 (Jurkat-NFAT luciferase) with SK-OV-3 cells [2]: 10.4 nM
- T cell activation EC50 (Jurkat-NFAT luciferase) with T-47D cells [2]: 0.629 nM
- EC50 [3]: 287 nM
- EC50 [4]: 93.7 nM
- EC50 [5]: 5.05 nM
- EC50 [6]: 81.2 nM
- PBMC killing EC50, BT-549 cells [7]: 0.956 nM
- PBMC killing EC50, HCC70 cells [7]: 0.595 nM
- PBMC killing EC50, HCC1954 cells [7]: 1.89 nM
- PBMC killing EC50, HT-29 cells [7]: 9.55 nM
- PBMC killing EC50, Hela cells [7]: 4.81 nM
- PBMC killing EC50, MCF-7 cells [7]: 0.131 nM
- T cell killing EC50, BT-549 cells [7]: 0.141 nM
- T cell killing EC50, HCC70 cells [7]: 0.185 nM
- T cell killing EC50, HCC1954 cells [7]: 0.281 nM
- T cell killing EC50, HT-29 cells [7]: 1.58 nM
- T cell killing EC50, Hela cells [7]: 0.278 nM
- T cell killing EC50, MCF-7 cells [7]: 0.153 nM
- T cell killing EC50, SK-OV-3 cells [7]: 0.689 nM
- T cell killing EC50, T-47D cells [7]: 0.0845 nM
- EC50 [8]: 59 nM
